How the values were obtained:
[1] = target: β subunit of E. coli RNAP (E. coli, UniProt P0A8V2 1-1342); assay: cryo-EM structure
[2] = target: β’ subunit of E. coli RNAP (E. coli, UniProt P0A8T7 1-1407); assay: cryo-EM structure
Chain of β’ subunit of E. coli RNAP (P0A8T7 whole entry): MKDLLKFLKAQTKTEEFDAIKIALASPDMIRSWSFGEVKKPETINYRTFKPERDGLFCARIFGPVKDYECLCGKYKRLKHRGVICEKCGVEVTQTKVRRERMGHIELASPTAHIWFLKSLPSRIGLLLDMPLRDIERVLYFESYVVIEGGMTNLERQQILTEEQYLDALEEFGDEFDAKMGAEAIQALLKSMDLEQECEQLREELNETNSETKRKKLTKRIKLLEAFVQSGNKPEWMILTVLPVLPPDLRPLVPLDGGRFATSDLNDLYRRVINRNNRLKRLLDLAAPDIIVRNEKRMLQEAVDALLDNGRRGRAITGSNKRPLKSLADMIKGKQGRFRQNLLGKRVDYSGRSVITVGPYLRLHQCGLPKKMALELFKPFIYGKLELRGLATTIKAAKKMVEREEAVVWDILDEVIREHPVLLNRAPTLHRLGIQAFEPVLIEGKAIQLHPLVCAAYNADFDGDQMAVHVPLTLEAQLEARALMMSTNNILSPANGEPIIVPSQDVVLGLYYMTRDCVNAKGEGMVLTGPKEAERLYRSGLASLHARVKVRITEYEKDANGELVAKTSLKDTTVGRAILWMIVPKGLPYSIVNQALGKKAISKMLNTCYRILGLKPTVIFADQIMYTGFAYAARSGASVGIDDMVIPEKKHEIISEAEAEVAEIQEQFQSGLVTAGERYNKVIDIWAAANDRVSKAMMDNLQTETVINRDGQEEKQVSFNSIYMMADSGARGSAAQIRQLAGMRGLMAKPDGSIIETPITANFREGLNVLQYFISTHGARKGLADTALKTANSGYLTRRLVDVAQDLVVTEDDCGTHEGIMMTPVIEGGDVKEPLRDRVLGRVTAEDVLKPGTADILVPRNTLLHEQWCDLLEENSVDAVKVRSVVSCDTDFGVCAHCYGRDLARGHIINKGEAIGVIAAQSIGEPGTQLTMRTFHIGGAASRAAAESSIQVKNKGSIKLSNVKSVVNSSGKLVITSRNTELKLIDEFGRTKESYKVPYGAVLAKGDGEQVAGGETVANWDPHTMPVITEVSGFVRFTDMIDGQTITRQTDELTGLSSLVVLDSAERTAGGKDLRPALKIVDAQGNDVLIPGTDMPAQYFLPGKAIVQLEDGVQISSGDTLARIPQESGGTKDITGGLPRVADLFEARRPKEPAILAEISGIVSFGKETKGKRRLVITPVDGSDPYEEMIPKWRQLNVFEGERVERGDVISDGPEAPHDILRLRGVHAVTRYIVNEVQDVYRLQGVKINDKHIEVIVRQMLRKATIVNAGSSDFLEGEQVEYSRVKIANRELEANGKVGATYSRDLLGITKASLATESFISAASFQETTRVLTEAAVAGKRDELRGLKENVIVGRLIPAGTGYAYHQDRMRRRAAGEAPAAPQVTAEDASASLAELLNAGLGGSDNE

Chain of β subunit of E. coli RNAP (P0A8V2 whole entry): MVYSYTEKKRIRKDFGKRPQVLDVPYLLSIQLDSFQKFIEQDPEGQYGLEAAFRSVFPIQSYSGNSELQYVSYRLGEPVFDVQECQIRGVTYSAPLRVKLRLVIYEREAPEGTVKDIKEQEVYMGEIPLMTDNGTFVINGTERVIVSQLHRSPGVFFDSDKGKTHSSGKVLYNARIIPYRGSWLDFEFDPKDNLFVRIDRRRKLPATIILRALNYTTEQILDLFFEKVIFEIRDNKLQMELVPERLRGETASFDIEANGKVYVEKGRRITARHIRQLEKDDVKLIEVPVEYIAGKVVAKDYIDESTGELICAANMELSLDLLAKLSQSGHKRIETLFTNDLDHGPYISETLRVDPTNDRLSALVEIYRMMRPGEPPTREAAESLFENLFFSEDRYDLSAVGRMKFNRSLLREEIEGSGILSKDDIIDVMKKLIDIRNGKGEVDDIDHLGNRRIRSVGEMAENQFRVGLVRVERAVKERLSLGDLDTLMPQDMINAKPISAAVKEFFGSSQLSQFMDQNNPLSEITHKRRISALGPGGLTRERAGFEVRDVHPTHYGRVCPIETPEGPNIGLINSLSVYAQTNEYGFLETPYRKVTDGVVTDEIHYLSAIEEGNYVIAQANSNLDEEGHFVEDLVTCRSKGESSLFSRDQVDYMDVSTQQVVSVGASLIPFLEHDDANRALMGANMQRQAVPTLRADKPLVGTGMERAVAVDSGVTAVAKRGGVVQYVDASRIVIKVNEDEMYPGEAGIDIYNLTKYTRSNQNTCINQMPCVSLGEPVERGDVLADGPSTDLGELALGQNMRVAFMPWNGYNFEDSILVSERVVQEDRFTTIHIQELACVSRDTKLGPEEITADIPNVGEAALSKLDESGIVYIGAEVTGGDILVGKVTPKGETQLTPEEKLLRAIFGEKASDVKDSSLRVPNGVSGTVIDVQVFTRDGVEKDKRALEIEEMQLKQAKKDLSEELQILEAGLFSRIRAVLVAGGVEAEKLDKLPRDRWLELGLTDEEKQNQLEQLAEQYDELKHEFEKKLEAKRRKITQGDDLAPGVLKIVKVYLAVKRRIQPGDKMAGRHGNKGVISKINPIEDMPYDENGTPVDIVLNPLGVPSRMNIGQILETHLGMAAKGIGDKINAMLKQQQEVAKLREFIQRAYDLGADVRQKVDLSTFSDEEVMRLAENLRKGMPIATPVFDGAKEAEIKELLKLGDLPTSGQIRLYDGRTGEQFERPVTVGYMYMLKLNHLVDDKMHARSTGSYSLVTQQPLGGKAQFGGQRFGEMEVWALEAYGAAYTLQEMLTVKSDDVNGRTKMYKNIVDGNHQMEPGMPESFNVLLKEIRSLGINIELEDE

B1: E. coli RapA protein (enzyme, UniProt P60240 1-968, looked up)
chain: MPFTLGQRWISDTESELGLGTVVAVDARTVTLLFPSTGENRLYARSDSPVTRVMFNPGDTITSHDGWQMQVEEVKEENGLLTYIGTRLDTEESGVALREVFLDSKLVFSKPQDRLFAGQIDRMDRFALRYRARKYSSEQFRMPYSGLRGQRTSLIPHQLNIAHDVGRRHAPRVLLADEVGLGKTIEAGMILHQQLLSGAAERVLIIVPETLQHQWLVEMLRRFNLRFALFDDERYAEAQHDAYNPFDTEQLVICSLDFARRSKQRLEHLCEAEWDLLVVDEAHHLVWSEDAPSREYQAIEQLAEHVPGVLLLTATPEQLGMESHFARLRLLDPNRFHDFAQFVEEQKNYRPVADAVAMLLAGNKLSNDELNMLGEMIGEQDIEPLLQAANSDSEDAQSARQELVSMLMDRHGTSRVLFRNTRNGVKGFPKRELHTIKLPLPTQYQTAIKVSGIMGARKSAEDRARDMLYPERIYQEFEGDNATWWNFDPRVEWLMGYLTSHRSQKVLVICAKAATALQLEQVLREREGIRAAVFHEGMSIIERDRAAAWFAEEDTGAQVLLCSEIGSEGRNFQFASHMVMFDLPFNPDLLEQRIGRLDRIGQAHDIQIHVPYLEKTAQSVLVRWYHEGLDAFEHTCPTGRTIYDSVYNDLINYLASPDQTEGFDDLIKNCREQHEALKAQLEQGRDRLLEIHSNGGEKAQALAESIEEQDDDTNLIAFAMNLFDIIGINQDDRGDNMIVLTPSDHMLVPDFPGLSEDGITITFDREVALAREDAQFITWEHPLIRNGLDLILSGDTGSSTISLLKNKALPVGTLLVELIYVVEAQAPKQLQLNRFLPPTPVRMLLDKNGNNLAAQVEFETFNRQLNAVNRHTGSKLVNAVQQDVHAILQLGEAQIEKSARALIDAARNEADEKLSAELSRLEALRAVNPNIRDDELTAIESNRQQVMESLDQAGWRLDALRLIVVTHQ
[1]
  binding result: binds
[2]
  binding result: binds
